Here are results for 12 molecules from patent US20240174744A1 (SCIRHOM, published 2024).

To fix the notation:
T1: miR2-FL-WT-FLAG (mouse iRhom2 full length wild type C-terminally tagged with the triple-FLAG epitope) (mouse, UniProt Q80WQ6 1-827)
T1 construct: also called expressed by MEF-DKO-miR2-FL-WT-FLAG cells
T1 sequence: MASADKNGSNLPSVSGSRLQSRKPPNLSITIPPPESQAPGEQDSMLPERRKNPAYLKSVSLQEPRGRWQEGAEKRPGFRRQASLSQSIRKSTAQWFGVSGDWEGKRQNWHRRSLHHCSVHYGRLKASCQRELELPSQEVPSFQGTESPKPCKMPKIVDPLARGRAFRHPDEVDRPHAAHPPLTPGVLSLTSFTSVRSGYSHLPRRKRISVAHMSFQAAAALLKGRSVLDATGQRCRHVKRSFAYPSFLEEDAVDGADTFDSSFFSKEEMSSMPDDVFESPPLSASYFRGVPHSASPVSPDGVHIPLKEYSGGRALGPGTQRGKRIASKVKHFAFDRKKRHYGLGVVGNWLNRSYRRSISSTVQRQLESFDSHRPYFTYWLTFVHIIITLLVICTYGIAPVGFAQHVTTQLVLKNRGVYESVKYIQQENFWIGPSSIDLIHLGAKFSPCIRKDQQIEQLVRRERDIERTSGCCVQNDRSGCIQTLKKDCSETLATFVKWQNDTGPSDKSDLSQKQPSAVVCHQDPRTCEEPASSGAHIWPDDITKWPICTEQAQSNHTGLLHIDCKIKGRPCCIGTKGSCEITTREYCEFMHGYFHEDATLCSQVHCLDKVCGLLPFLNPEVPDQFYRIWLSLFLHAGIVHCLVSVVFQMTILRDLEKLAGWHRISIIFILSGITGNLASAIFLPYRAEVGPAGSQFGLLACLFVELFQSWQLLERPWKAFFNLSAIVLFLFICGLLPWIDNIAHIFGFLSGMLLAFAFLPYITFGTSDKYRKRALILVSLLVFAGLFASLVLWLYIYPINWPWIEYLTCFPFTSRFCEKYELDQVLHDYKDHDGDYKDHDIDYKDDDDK

T2: hiR2-FL-L539A-T7 (human iRhom2 full length L539A, 3 x T7 tag) (human, UniProt Q6PJF5 1-856)
T2 sequence: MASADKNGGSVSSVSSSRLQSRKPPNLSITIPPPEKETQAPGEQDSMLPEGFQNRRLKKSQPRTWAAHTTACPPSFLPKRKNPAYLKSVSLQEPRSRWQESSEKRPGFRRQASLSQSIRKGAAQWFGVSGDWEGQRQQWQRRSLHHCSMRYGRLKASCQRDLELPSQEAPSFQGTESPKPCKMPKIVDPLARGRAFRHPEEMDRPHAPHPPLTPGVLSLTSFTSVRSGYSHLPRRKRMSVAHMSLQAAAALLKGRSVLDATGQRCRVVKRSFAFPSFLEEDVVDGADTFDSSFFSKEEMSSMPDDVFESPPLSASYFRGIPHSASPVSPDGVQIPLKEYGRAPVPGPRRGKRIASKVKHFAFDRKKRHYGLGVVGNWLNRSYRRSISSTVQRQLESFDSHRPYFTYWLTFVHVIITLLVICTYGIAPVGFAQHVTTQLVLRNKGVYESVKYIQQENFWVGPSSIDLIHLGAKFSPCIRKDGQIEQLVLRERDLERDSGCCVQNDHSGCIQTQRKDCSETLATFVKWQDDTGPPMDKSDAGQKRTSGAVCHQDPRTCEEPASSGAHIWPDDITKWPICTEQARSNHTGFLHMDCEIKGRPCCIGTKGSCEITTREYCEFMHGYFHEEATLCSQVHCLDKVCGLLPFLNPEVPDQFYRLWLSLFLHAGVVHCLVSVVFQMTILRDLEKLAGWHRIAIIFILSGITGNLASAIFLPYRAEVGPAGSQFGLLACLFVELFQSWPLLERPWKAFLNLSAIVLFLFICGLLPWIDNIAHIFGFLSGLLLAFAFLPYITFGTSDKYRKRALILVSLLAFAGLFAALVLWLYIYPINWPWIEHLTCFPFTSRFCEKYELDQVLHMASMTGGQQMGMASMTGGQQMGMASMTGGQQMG

B1: antibody 43 (antibody, V domains shown)
VH: QVALKESGPGILQPSQTLSLTCSFSGFSLSTFGMGVGWIRQSSGKGLEWLANIWWDDDKYYNPALKSRLTISKDASKNQAFLKIANVDTADTATYYCARIGNYGSNYWYFDVWGTGTTVTVSS
VL: QIVLTQSPAIMSASPGERVTMTCSANSRISYMYWYQQKPGSSPRLLIYDTSNLASGVPVRFSGSGSGTSYSLTISRMEAEDAATYNCQQWSSYPLTFGAGTKLELK
notes: Mouse IgG, kappa light chain; also called clone #43
B2: antibody 57 (antibody, V domains shown)
VH: QVTLKESGPGILQPSQTLSLTCSFSGFSLSTFGMGVGWIRQPSGKGLEWLAHIWWDDDKYYNPALKSRLTISKDTSKNQIFLKIANVDTADSATFYCARIENYGSNYWYFDVWGTGTTVTVSS
VL: QIVLTQSPAIMSASPGEKVTMTCSASSSVSYMYWYQQKPGSSPRVLIYDTSNLASGVPVRFSGSGSGTSYSLTVSRMEAEDAATYYCQQWNSYPLTFGAGTKLELK
notes: Mouse IgG, kappa light chain; also called clone #57
B3: antibody 54 (antibody, V domains shown)
VH: QVTLKESGPGILQPSQTLSLTCSFSGFSLSTFGLGVGWIRQPSGKGLECLAHIWWDDDKYSNPALKSRLTISKDTSKNQVFLKIANVDSADTATYFCARILNYGSNYWYFDVWGTGTTVTVSS
VL: QIVLTQSPALMSASPGEKVTMTCSASSSISYMYWYQQKPGSSPRLLIYDTSNLASGVPVRFSGSGSGTSFSLTVSRMEAEDAATYYCQQWNSYPLTFGAGTKLELK
notes: Mouse IgG, kappa light chain; also called clone #54
B4: antibody 56 (antibody, V domains shown)
VH: QVTLKESGPGILQPSQTLSLTCSFSGFSLSTFGMGVGWIRQPSGKGLEWLTNIWWDDDKYYNSVLKSRLTISKDTSKNQVFLKIANVDTADTATYYCARIAAYGSNYWYFDVWGTGTTVTVSS
VL: QIVLTQSPAIMSASPGEKVTMTCSASSSVSYMYWYQQKPGSSPRVLIYDTSNLSSGVPVRFSGSGSGTSYSLTISRMEAEDAATYYCQQWSSYPLTFGAGTKLELK
notes: Mouse IgG, kappa light chain; also called clone #56
B5: antibody 49 (antibody, V domains shown)
VH: QVTLKESGPGILQPSQTLSLTCSFSGFSLSTFGMGVGWIRQPSGKGLEWLAHIWWDDDKYYNPALQSRLTVSKDTAKNQVFLKIANVDTADTAIYYCARVGNYGSNYWYFAVWGTGTTVTVSS
VL: QIVLTQSPAIMSASPGEKVTMTCSASSSVSYMYWYQQKPGSSPRLLIYDTSNLASGVPVRFSGSGSGTSYSLTISRMEAEDAATYYCQQWNSYPLTFGAGTKLELK
notes: Mouse IgG, kappa light chain; also called clone #49
B6: antibody 48 (antibody, V domains shown)
VH: QVQLQQSGTELVRPGTSVKVSCKASGYAFTNYLIEWVKQRPGQGLEWIGVINPGSGFTKYNEKFKGKATLTADKSSSTVYMHLSSLTSEDSAVYFCARGLYRAMDYWGQGTSVTVSS
VL: DIQMTQSPASQSASLGESVTITCLASQTIATWLAWYQQKPGKSPQLLIYGATTLADGVPSRFSGGGSGTKFSFKISSLQAEDFVSYYCQQLYSTPYTFGGGTKLEIK
notes: Mouse IgG, kappa light chain; also called clone #48; purified antibody 48
B7: antibody 47 (antibody, V domains shown)
VH: QVQLQQSGAELVRPGTSVKVSCKASGYAFTNYLIEWVKQRPGQGLEWIGVINPGSGFTNYNEKFKGKAILNADKSSSTAYMQLISLTSEDSAVYFCARDLKRAMDHWGQGTSVTVSS
VL: DIQMTQSPASQSASLGESVTITCLASQTIGTWLAWYQQKPGKSPQLLIHAATSLADGVPSRFSGSGSGTKFSFKISSLQAEDFVSYYCQQIYSSPYTFGGGTKLEIK
notes: Mouse IgG, kappa light chain; also called clone #47
B8: antibody 50 (antibody, V domains shown)
VH: QVQLQQSGAELVRPGASVKVSCKASGYAFSNYLIEWVKQRPGQGLEWIGVINPGSGFTKYNEKFKGKATLTADKSSSTAYMQLSSLTSEDSAVYFCARGLYRAMDYWGQGTSVTVSS
VL: DIQMTQSPASQSASLGESVTITCLASQTIGTWLAWYQQKPGKSPQLLIYAAASLADGVPSRFSGGGSGTKFSFKISSLQAEDFVNYYCQQIYSTPYTFGGGTKLEIK
notes: Mouse IgG, kappa light chain; also called clone #50; purified antibody 50
B9: antibody 51 (antibody, V domains shown)
VH: QVQLQQSGAELVKPGASVKISCKASGYTFSNYWMNWVKQRPGKGLEWIGQIYPGDGDTKYNGKFKNKATLTADKSSSTAYMQFSSLTSEDSAVYFCARGDLVFVYWGLGTLVTVSA
VL: DVQITQSPSYLAVSPGETITINCRASKNIRKYLAWYQEKPGKTNKLLIYSGSTSQSGVPSRFSGSGSGTDFTLTISSLEPEDFAMYYCQQHNEYPYTFGGGTKLEIK
notes: Mouse IgG, kappa light chain; also called clone #51
B10: antibody 46 (antibody, V domains shown)
VH: QVTLKESGPGILQPSQTLSLTCSFSGFSLSTFGMGVGWIRQPSGKGLEWLAHIWWDDDNYYNQALKSRLTISKDNTKNQVFLNIANVDTADTATYYCARIRSYDYDVRYAMDYWGQGTSVTVSS
VL: DIKMTQSPSSMYASLRERVTITCKASQDINSYLSWFQQKPGKSPKTLIYRANRLVDGVPSRFSGSGSGQDYSLTISSLEYEDLGIYYCQQYYEFPLTFGAGTRLELK
notes: Mouse IgG, kappa light chain; also called clone #46
B11: antibody 16 (antibody, V domains shown)
VH: QVTLKESGPGILQPSQTLSLTCSFSGFSLSTFALGVGWIRQPSGRGLEWLAHIWWDDDKYYNPALKSRLTISKDTSKNHVFLKIANVDTADTATYYCARITTYYYGMDYWGQGTSVTVSS
VL: DIVLSQSPATLSVTPGDSVSLFCRASQSIGNHLHWYQQESHASPRLLIKYASQSISGIPSRFSGSGSGTDFTLSINSVETEDFGMYFCQQSYNWPLTFGAGTKLELK
notes: Mouse IgG, kappa light chain; also called clone #16; m16
B12: antibody 3 (antibody, V domains shown)
VH: QVTLKESGPGILQPSQTLSLTCSFSGFSLTTFAMGIGWVRQPSGKGLEWLAHIWWDGEKYNNPVLKSRLTISKDTSKNQVFLRIANVDTPDTATYYCARISSIYYIIDNWGQGTSVTVSS
VL: DIVLTQSPATLSVTPGHSVSLSCRASQSISNNLHWYQKKSHESPRLLIKYVSQSISGIPSRFSGSGSGTDFTLSINSVETEDFGMYFCQQSYNWPLTFGAGTKLELK
notes: Mouse IgG, kappa light chain; also called clone #3; purified antibody 3

The target in the first assay is T1, miR2-FL-WT-FLAG (mouse iRhom2 full …). The experiment in a line: FACS, MEF-DKO-miR2-FL-WT-FLAG cells. How it is done:
In brief, immortalized MEF-DKO-EV control cells, MEF-DKO-hiR2-FL-WT-FLAG cells and MEF-DKO-miR2-FL-WT-FLAG cells were harvested with 10 mM EDTA in PBS, washed and resuspended in FACS buffer (PBS, 3% FBS, 0.05% sodium azide), and seeded in Nunc U-bottom 96-well plates (Thermo Fisher Scientific, USA) at approximately 3×10⁵ cells per well. To pellet cells and remove supernatants, the plates were centrifuged at 1,500 rpm and 4° C. for 3 minutes. For primary staining, cells were resuspended in 100 μl per well of either FACS buffer alone (controls), mouse monoclonal anti-FLAG IgG (Sigma-Aldrich, USA) at 3 μg/ml FACS buffer or the antibodies of the present disclosure also at 3 μg/ml FACS buffer and incubated on ice for 1 hour. Afterwards, plates were centrifuged at 1,500 rpm and 4° C. for 3 minutes and washed twice with 200 μl per well of FACS buffer. For secondary staining, cells were spun down and resuspended in 100 μl per well of PE-conjugated goat anti-mouse IgG F(ab′)2 detection fragment (Dianova, Germany) diluted 1:100 in FACS buffer. Protected from light, the cell suspensions were incubated on ice for 1 hour. Plates were then centrifuged at 1,500 rpm and 4° C. for 3 minutes and washed three times with 200 μl per well of FACS buffer. Finally, cells were resuspended in 150 μl per well of FACS buffer and analyzed using a BD Accuri™ C6 Plus flow cytometer (Becton Dickinson, Germany).
For orientation: Flow cytometry measures light scatter and fluorescence of single cells or particles in a stream.
Regarding B1, the binding result was “no binding (tested: 3 µg/ml)”.
The same measure, in the same setting: under B2 stands “no binding (tested: 3 µg/ml)”.
In the case of B3, the binding result is “no binding (tested: 3 µg/ml)”.
Same read-out and setting: in the case of B4 it was “no binding (tested: 3 µg/ml)”; in that of B5, “no binding (tested: 3 µg/ml)”.
Same read-out and setting: in the case of B6 it was “no binding (tested: 3 µg/ml)”; in that of B7, “no binding (tested: 3 µg/ml)”; in that of B8, “no binding (tested: 3 µg/ml)”.
Same read-out and setting: in the case of B9 it was “no binding (tested: 3 µg/ml)”; in that of B10, “no binding (tested: 3 µg/ml)”; in that of B11, “no binding (tested: 3 µg/ml)”.

The target of another assay is T2, hiR2-FL-L539A-T7 (human iRhom2 full …). The experiment in a line: FACS on cells of the row L539A.
Turning to B1, the binding result was “no binding (tested: 3 µg/ml)”.
On to B12, for which the binding result is “no binding (tested: 3 µg/ml)”.
